From US20140335573A1

Biological target: native C. thermocellum cellulosome (purified from culture media of C. thermocellum ATCC 27405) (Clostridium thermocellum) (UniProt Q06851)
Experiment: cell-based or functional assay

Sequence of UniProt Q06851 (Q06851 whole entry): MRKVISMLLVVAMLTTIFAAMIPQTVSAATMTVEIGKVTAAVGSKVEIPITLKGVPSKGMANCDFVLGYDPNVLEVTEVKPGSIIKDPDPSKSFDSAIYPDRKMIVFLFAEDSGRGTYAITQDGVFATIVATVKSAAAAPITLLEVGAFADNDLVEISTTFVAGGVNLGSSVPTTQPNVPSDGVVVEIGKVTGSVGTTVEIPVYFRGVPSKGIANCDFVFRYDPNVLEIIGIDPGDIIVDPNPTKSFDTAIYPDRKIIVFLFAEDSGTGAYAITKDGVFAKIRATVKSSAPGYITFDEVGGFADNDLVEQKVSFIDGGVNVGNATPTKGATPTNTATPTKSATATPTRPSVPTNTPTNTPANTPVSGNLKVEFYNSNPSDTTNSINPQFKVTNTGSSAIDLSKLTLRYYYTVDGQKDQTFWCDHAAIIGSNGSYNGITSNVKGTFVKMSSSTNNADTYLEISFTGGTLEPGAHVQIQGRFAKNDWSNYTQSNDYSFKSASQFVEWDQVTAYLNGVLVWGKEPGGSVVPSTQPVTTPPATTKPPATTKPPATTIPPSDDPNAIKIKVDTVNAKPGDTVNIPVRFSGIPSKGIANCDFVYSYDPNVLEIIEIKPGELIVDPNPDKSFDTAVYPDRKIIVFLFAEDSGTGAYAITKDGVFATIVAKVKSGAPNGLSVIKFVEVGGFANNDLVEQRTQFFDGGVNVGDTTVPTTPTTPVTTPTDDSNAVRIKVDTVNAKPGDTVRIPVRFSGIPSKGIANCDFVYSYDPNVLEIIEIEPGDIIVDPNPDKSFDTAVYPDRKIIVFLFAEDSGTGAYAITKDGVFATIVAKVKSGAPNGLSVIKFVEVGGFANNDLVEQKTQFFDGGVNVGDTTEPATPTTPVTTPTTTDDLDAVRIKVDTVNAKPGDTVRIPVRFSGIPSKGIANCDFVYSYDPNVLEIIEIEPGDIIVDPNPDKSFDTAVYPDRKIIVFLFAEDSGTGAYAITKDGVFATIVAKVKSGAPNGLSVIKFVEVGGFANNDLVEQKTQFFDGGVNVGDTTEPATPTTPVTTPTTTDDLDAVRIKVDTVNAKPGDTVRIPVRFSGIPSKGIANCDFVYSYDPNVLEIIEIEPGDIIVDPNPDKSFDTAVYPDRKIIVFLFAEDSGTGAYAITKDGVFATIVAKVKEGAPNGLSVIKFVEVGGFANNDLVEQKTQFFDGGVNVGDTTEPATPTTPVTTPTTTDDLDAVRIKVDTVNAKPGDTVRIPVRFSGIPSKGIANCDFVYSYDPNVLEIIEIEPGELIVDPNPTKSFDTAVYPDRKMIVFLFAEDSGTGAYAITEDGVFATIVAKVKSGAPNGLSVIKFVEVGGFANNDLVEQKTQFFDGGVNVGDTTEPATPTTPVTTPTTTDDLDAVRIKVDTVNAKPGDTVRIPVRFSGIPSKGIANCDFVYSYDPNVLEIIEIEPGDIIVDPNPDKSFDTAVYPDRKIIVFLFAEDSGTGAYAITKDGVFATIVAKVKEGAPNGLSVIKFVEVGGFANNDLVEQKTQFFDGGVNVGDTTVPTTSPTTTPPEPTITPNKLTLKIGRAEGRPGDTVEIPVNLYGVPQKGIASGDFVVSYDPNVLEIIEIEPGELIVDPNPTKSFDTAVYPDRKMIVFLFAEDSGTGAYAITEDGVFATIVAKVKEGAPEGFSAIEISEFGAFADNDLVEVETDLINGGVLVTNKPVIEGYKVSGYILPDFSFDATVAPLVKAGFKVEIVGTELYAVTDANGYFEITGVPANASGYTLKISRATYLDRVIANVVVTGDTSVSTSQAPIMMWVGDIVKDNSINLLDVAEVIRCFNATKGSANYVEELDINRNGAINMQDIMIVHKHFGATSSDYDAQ

“BglA-CohII (C. thermocellum beta-glucosidase A fused to the type-II cohesin module of Orf2p) (enzyme)” gave a hydrolysis of microcrystalline cellulose (soluble reducing sugars), fold over native cellulosome of 2.68 fold and a hydrolysis of pre-treated switchgrass (soluble reducing sugars), fold over native cellulosome of 1.86 fold.
